Results on two molecules are retold here after patent US20170080102A1.

The target of assay [1] is CD33 protein (human), on primary patient AML cells and AML cell lines (human) (UniProt P20138). The experiment in a line: cell-based or functional assay.
Assay [2] shares this target. As to the kind of experiment: cell-based or functional assay. This is another data set of the same source.

Some results are limits rather than exact numbers.

Sequence of UniProt P20138 (P20138 18-364): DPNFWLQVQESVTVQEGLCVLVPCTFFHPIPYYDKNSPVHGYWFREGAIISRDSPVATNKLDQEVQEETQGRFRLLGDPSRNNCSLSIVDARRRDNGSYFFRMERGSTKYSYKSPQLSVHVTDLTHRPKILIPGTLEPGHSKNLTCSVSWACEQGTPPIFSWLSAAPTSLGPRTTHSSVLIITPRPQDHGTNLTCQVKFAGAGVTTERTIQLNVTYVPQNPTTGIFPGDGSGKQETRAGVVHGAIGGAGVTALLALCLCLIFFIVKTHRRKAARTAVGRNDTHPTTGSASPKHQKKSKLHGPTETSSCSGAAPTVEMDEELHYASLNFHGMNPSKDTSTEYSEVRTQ

In assay [1], “non-binding chimeric IgG1-DGN462 conjugate (antibody)” came in with an IC50, cytotoxicity against primary patient AML cells above 1000 pM.

B1: IMGN779 (anti-huCD33 antibody huMy9-6 conjugated to DGN462 via a cleavable disulfide sulfo-SPDB linker) (antibody, from a related filing, V domains shown)
VH: QVQLQQPGAEVVKPGASVKMSCKASGYTFTSYYIHWIKQTPGQGLEWVGVIYPGNDDISYNQKFQGKATLTADKSSTTAYMQLSSLTSEDSAVYYCAREVRLRYFDVWGQGTTVTVSS
VL: EIVLTQSPGSLAVSPGERVTMSCKSSQSVFFSSSQKNYLAWYQQIPGQSPRLLIYWASTRESGVPDRFTGSGSGTDFTLTISSVQPEDLAIYYCHQYLSSRTFGQGTKLEIKR
In assay [2], B1 gave an IC50, cytotoxicity on MOLM-13 FLT3-ITD AML cell line (WST-8 assay) of 5 pM; an IC50, cytotoxicity on MV4-11 FLT3-ITD AML cell line (WST-8 assay) of 2 pM; an IC50, cytotoxicity on a panel of 21 AML cell lines (WST-8 assay) of 2 to 3000 pM; an IC50, cytotoxicity on a panel of 21 AML cell lines (WST-8 assay), median of 70 pM. This molecule yielded an IC50, in vitro cytotoxicity against primary patient AML cells in assay [2] of 10 to 1500 pM.
